Measurements taken from the supplement of paper PMC9112550, “Optimization of the antimicrobial peptide Bac7 by deep mutational scanning” (BMC Biology, 2022).

What follows are sequences tested on Escherichia coli TOP10 (assay: shrunken log2 fold change of peptide-encoding DNA abundance (4.5 h post-induction vs induction); higher = less antimicrobial activity (less host growth inhibition)). Details: time post-induction: 4.5 h; library: site-saturation at positions 5, 18, 19, 20.
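Note: peptides expressed intracellularly from a pBAD plasmid library in pooled LB shake-flask culture, induced with 0.3% L-arabinose, DNA abundance read by NGS, three biological replicates, DESeq2 with apeglm shrinkage.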

Row | Sequence | shrunken log2 fold change
1 | RRIRCRPPRLPRPRPRPRFMPRP | -0.244
2 | RRIRCRPPRLPRPRPRPRHLPRP | -0.302
3 | RRIRCRPPRLPRPRPRPRHPPRP | 0.11
4 | RRIRCRPPRLPRPRPRPRIDPRP | 0.117
5 | RRIRCRPPRLPRPRPRPRIFPRP | -0.16
6 | RRIRCRPPRLPRPRPRPRILPRP | -0.567
7 | RRIRCRPPRLPRPRPRPRKAPRP | 0.578
8 | RRIRCRPPRLPRPRPRPRLKPRP | 0.0782
9 | RRIRCRPPRLPRPRPRPRLVPRP | 0.0587
10 | RRIRCRPPRLPRPRPRPRLYPRP | -0.307
11 | RRIRCRPPRLPRPRPRPRNAPRP | 0.291
12 | RRIRCRPPRLPRPRPRPRNMPRP | 0.0316
13 | RRIRCRPPRLPRPRPRPRNPPRP | 0.176
14 | RRIRCRPPRLPRPRPRPRNYPRP | -0.094
15 | RRIRCRPPRLPRPRPRPRPPPRP | 1.49
16 | RRIRCRPPRLPRPRPRPRQRPRP | 0.645
17 | RRIRCRPPRLPRPRPRPRQVPRP | 0.184
18 | RRIRCRPPRLPRPRPRPRRAPRP | 0.64
19 | RRIRCRPPRLPRPRPRPRRGPRP | 0.392
20 | RRIRCRPPRLPRPRPRPRSAPRP | 0.0532
21 | RRIRCRPPRLPRPRPRPRSHPRP | -0.00365
22 | RRIRCRPPRLPRPRPRPRVHPRP | -0.152
23 | RRIRCRPPRLPRPRPRPRVQPRP | 0.241
24 | RRIRCRPPRLPRPRPRPRVVPRP | 0.247
25 | RRIRCRPPRLPRPRPRPRVYPRP | -0.217

Row | Sequence | shrunken log2 fold change
26 | RRIRCRPPRLPRPRPRPRWQPRP | 0.0261
27 | RRIRCRPPRLPRPRPRPRYEPRP | -0.0468
28 | RRIRCRPPRLPRPRPRPRYVPRP | -0.22
29 | RRIRCRPPRLPRPRPRPSCKPRP | -0.685
30 | RRIRCRPPRLPRPRPRPSERPRP | -0.0162
31 | RRIRCRPPRLPRPRPRPSFDPRP | -0.282
32 | RRIRCRPPRLPRPRPRPSHEPRP | -0.334
33 | RRIRCRPPRLPRPRPRPSKDPRP | -0.361
34 | RRIRCRPPRLPRPRPRPSKRPRP | -0.12
35 | RRIRCRPPRLPRPRPRPSNCPRP | -0.0679
36 | RRIRCRPPRLPRPRPRPSNGPRP | -0.113
37 | RRIRCRPPRLPRPRPRPSQFPRP | -0.787
38 | RRIRCRPPRLPRPRPRPSQVPRP | -0.156
39 | RRIRCRPPRLPRPRPRPSRHPRP | -0.33
40 | RRIRCRPPRLPRPRPRPSTHPRP | -0.454
41 | RRIRCRPPRLPRPRPRPSVMPRP | 0.445
42 | RRIRCRPPRLPRPRPRPSYGPRP | -0.627
43 | RRIRCRPPRLPRPRPRPSYSPRP | -1.04
44 | RRIRCRPPRLPRPRPRPTAKPRP | 0.226
45 | RRIRCRPPRLPRPRPRPTCPPRP | -0.26
46 | RRIRCRPPRLPRPRPRPTCRPRP | 0.211
47 | RRIRCRPPRLPRPRPRPTDLPRP | 0.0853
48 | RRIRCRPPRLPRPRPRPTEPPRP | 0.305
49 | RRIRCRPPRLPRPRPRPTFPPRP | -0.0779
50 | RRIRCRPPRLPRPRPRPTGDPRP | 0.231

Row | Sequence | shrunken log2 fold change
51 | RRIRCRPPRLPRPRPRPTHCPRP | 0.363
52 | RRIRCRPPRLPRPRPRPTIAPRP | -0.211
53 | RRIRCRPPRLPRPRPRPTITPRP | -0.44
54 | RRIRCRPPRLPRPRPRPTKCPRP | -0.0551
55 | RRIRCRPPRLPRPRPRPTKSPRP | -0.0425
56 | RRIRCRPPRLPRPRPRPTKTPRP | 0.137
57 | RRIRCRPPRLPRPRPRPTLTPRP | -0.14
58 | RRIRCRPPRLPRPRPRPTSHPRP | -0.348
59 | RRIRCRPPRLPRPRPRPTSPPRP | 0.102
60 | RRIRCRPPRLPRPRPRPTSYPRP | -0.119
61 | RRIRCRPPRLPRPRPRPTWHPRP | 0.00453
62 | RRIRCRPPRLPRPRPRPTWKPRP | -0.114
63 | RRIRCRPPRLPRPRPRPTYFPRP | -0.0696
64 | RRIRCRPPRLPRPRPRPTYSPRP | -1.01
65 | RRIRCRPPRLPRPRPRPTYVPRP | -0.259
66 | RRIRCRPPRLPRPRPRPVAEPRP | 0.417
67 | RRIRCRPPRLPRPRPRPVDMPRP | -0.247
68 | RRIRCRPPRLPRPRPRPVEWPRP | 0.000166
69 | RRIRCRPPRLPRPRPRPVFEPRP | -0.00537
70 | RRIRCRPPRLPRPRPRPVGIPRP | -0.24
71 | RRIRCRPPRLPRPRPRPVGYPRP | 0.0595
72 | RRIRCRPPRLPRPRPRPVHCPRP | 0.0148
73 | RRIRCRPPRLPRPRPRPVHLPRP | 0.0885
74 | RRIRCRPPRLPRPRPRPVHMPRP | 0.0385
75 | RRIRCRPPRLPRPRPRPVHPPRP | -0.375

Row | Sequence | shrunken log2 fold change
76 | RRIRCRPPRLPRPRPRPVIGPRP | -0.18
77 | RRIRCRPPRLPRPRPRPVKNPRP | -0.344
78 | RRIRCRPPRLPRPRPRPVMYPRP | -0.199
79 | RRIRCRPPRLPRPRPRPVNNPRP | -0.327
80 | RRIRCRPPRLPRPRPRPVNYPRP | -0.376
81 | RRIRCRPPRLPRPRPRPVRYPRP | 0.0829
82 | RRIRCRPPRLPRPRPRPVSQPRP | 0.201
83 | RRIRCRPPRLPRPRPRPVSRPRP | 0.344
84 | RRIRCRPPRLPRPRPRPVTEPRP | -0.127
85 | RRIRCRPPRLPRPRPRPVVLPRP | -0.0778
86 | RRIRCRPPRLPRPRPRPVVSPRP | -0.229
87 | RRIRCRPPRLPRPRPRPVWPPRP | 0.239
88 | RRIRCRPPRLPRPRPRPVYDPRP | -0.683
89 | RRIRCRPPRLPRPRPRPVYSPRP | -0.156
90 | RRIRCRPPRLPRPRPRPWASPRP | 0.0212
91 | RRIRCRPPRLPRPRPRPWAYPRP | -0.508
92 | RRIRCRPPRLPRPRPRPWCNPRP | -0.412
93 | RRIRCRPPRLPRPRPRPWCRPRP | -0.282
94 | RRIRCRPPRLPRPRPRPWDDPRP | 0.0755
95 | RRIRCRPPRLPRPRPRPWDKPRP | -0.0809
96 | RRIRCRPPRLPRPRPRPWDRPRP | -0.608
97 | RRIRCRPPRLPRPRPRPWEPPRP | -0.00185
98 | RRIRCRPPRLPRPRPRPWEVPRP | 0.431
99 | RRIRCRPPRLPRPRPRPWFIPRP | -0.51
100 | RRIRCRPPRLPRPRPRPWFRPRP | -0.269

Row | Sequence | shrunken log2 fold change
101 | RRIRCRPPRLPRPRPRPWGLPRP | -0.268
102 | RRIRCRPPRLPRPRPRPWITPRP | -1.47
103 | RRIRCRPPRLPRPRPRPWLWPRP | 0.0682
104 | RRIRCRPPRLPRPRPRPWMCPRP | -0.851
105 | RRIRCRPPRLPRPRPRPWNAPRP | -0.129
106 | RRIRCRPPRLPRPRPRPWPCPRP | 1.63
107 | RRIRCRPPRLPRPRPRPWPNPRP | -0.279
108 | RRIRCRPPRLPRPRPRPWQQPRP | -0.000303
109 | RRIRCRPPRLPRPRPRPWRRPRP | 0.0523
110 | RRIRCRPPRLPRPRPRPWSSPRP | 0.615
111 | RRIRCRPPRLPRPRPRPWTPPRP | -0.131
112 | RRIRCRPPRLPRPRPRPWTQPRP | -0.12
113 | RRIRCRPPRLPRPRPRPWVCPRP | 0.0107
114 | RRIRCRPPRLPRPRPRPWVGPRP | -0.167
115 | RRIRCRPPRLPRPRPRPWWEPRP | -0.368
116 | RRIRCRPPRLPRPRPRPWWRPRP | 0.157
117 | RRIRCRPPRLPRPRPRPWWSPRP | 0.119
118 | RRIRCRPPRLPRPRPRPWYHPRP | -0.392
119 | RRIRCRPPRLPRPRPRPYCHPRP | -1.37
120 | RRIRCRPPRLPRPRPRPYDQPRP | -0.16
121 | RRIRCRPPRLPRPRPRPYDVPRP | -0.0223
122 | RRIRCRPPRLPRPRPRPYEGPRP | -0.103
123 | RRIRCRPPRLPRPRPRPYEVPRP | -0.0152
124 | RRIRCRPPRLPRPRPRPYHFPRP | -1.01
125 | RRIRCRPPRLPRPRPRPYHIPRP | -0.27

Row | Sequence | shrunken log2 fold change
126 | RRIRCRPPRLPRPRPRPYKQPRP | -0.211
127 | RRIRCRPPRLPRPRPRPYMKPRP | -0.582
128 | RRIRCRPPRLPRPRPRPYNQPRP | -1.23
129 | RRIRCRPPRLPRPRPRPYPMPRP | -0.424
130 | RRIRCRPPRLPRPRPRPYQTPRP | -0.0384
131 | RRIRCRPPRLPRPRPRPYRVPRP | 1.99
132 | RRIRCRPPRLPRPRPRPYSWPRP | -0.77
133 | RRIRCRPPRLPRPRPRPYVMPRP | -0.633
134 | RRIRCRPPRLPRPRPRPYVNPRP | -1.3
135 | RRIRCRPPRLPRPRPRPYVPPRP | -0.323
136 | RRIRCRPPRLPRPRPRPYVVPRP | 0.0333
137 | RRIRCRPPRLPRPRPRPYWNPRP | -0.629
138 | RRIRCRPPRLPRPRPRPYYIPRP | -0.564
139 | RRIRCRPPRLPRPRPRPYYTPRP | 0.00417
140 | RRIRDRPPRLPRPRPRPAAHPRP | 0.66
141 | RRIRDRPPRLPRPRPRPADQPRP | 0.553
142 | RRIRDRPPRLPRPRPRPAEMPRP | 0.515
143 | RRIRDRPPRLPRPRPRPAFQPRP | 0.201
144 | RRIRDRPPRLPRPRPRPAHEPRP | -0.0156
145 | RRIRDRPPRLPRPRPRPAHRPRP | -0.0802
146 | RRIRDRPPRLPRPRPRPAIDPRP | 0.336
147 | RRIRDRPPRLPRPRPRPAIEPRP | 0.0117
148 | RRIRDRPPRLPRPRPRPAIIPRP | 0.0892
149 | RRIRDRPPRLPRPRPRPAQFPRP | 0.442
150 | RRIRDRPPRLPRPRPRPARKPRP | 0.574
